# Measurements reported in the supplement of paper PMC12042874.
# ± gives the uncertainty stated by the source.
# Assay: amyloid nucleation score (Sup35N fusion, yeast selection) (log enrichment); library NNK2; higher = more nucleation; inactive = no reads after selection
# Procedure, shortened: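 The nucleation score is a DiMSum log enrichment of output over input reads, centred on the mode score of non-aggregating sequences. Sequences under 100 input reads were excluded, and reads came from Illumina sequencing of plasmid inserts. Psi-negative yeast expressing Sup35N fused to peptides of 20 random codons were induced with 100 μM copper sulfate for 24 hours and grown 7 days at 30°C on medium lacking adenine and uracil. Random libraries had three technical output replicates.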
row,Substance,amyloid nucleation score
1,MQIIGWILWGVLQAELHYRS,-1.01 ± 0.53
2,LHSCLMCRTSMWSVSIWLKL,-0.049 ± 0.74
3,IKVYESYVRT,-0.812 ± 0.39
4,LGRKR,-0.725 ± 0.76
5,TCVVSTYLINIQKNVASFER,6.816 ± 0.041
6,YDDKGEIRLPDQSMNCFVSD,-0.766 ± 1
7,TMKHLFRDGRSIRLLTCWVS,-0.931 ± 0.42
8,FMDIHRKMGTHVFLRKCFRI,-0.771 ± 1.1
9,TRISGLGPDRDFSFRAASAK,-0.446 ± 0.76
10,IARIRILCLL,0.234 ± 0.19
11,IIRMNLAGDGVESWGWDRLS,1.12 ± 0.45
12,QFDWDRVYMFSTLPFCIWWV,-0.783 ± 0.35
13,RMSVRLKVVHLDAIIVLVLG,0.877 ± 0.8
14,ILTGR,-0.16 ± 0.55
15,SLDSIFCLTENISYQGIWCR,-1.12 ± 0.28
16,VIGRYIDYC,-0.13 ± 0.27
17,LCCVVEN,-0.603 ± 0.42
18,SRRETTYHVVMDTFPTFAIT,0.943 ± 0.52
19,VYFLMLDY,-0.526 ± 0.49
20,IMIFSLVTMLDVNGTIC,7.477 ± 0.047
21,GDVLPNTSTGIFFSQPIMCA,0.501 ± 0.43
22,VVFRLRSNRGNVVPRSWAWC,1.71 ± 0.13

row,Substance,amyloid nucleation score
1,CEVLKHSCTDSEMHAKADGV,-0.307 ± 0.23
2,YLTRAIIVFIS,3.66 ± 0.062
3,IQDLRFNITVTMPLESVSFM,7.046 ± 0.058
4,HDTLIMFTYKVVVLLASERF,-0.549 ± 0.63
5,NYLDLFTRVWKS,inactive
6,YVVVINSEQNVETFKGFL,inactive
7,SDFMTKYHHL,3.33 ± 0.058
8,DNDMG,-0.267 ± 0.25
9,NGFVSSSRSFICFRWKWRYY,0.255 ± 1.1
10,FSSILWRFSRLVVRSLVPKS,0.175 ± 0.27
11,LRYIFKMS,-1.34 ± 0.49
12,MYVMTHNL,0.776 ± 0.44
13,STPLGPFLYF,-0.961 ± 0.76
14,IINWPQLFKVASWTPSKTPP,-0.07 ± 0.76
15,LLCCMWFDRWLWTGLAWITV,0.247 ± 0.24
16,LLVGLIASPPGGTGVTLFPT,4.15 ± 0.049
17,VRIFSVCYKHLMGHCSSSA,-0.398 ± 0.31
18,YMPPSCMSP,inactive
19,TRGKRVPPDVLSSPKRIANV,1.12 ± 0.46
20,SYYTL,inactive
21,TWQIFFGIFGFSFY,4.18 ± 0.062
22,GRHQVIGMWCSRLFPLVRRS,0.375 ± 0.56

row,Substance,amyloid nucleation score
1,CLVYVGRVPSRIGDHRITAY,0.966 ± 0.38
2,SMFGRRVWLDCNQPAGGRFA,0.118 ± 0.22
3,LRWAYMNTARQACMKAENG,-0.079 ± 0.62
4,CQRTLQTGAYRDGLCIYGLS,1.38 ± 0.41
5,NGGDRVLSFDIIIAGSLVAK,-0.354 ± 0.39
6,WLCVRNVLMCQW,7.037 ± 0.042
7,IRSLFLVDYNRMIGMPKGMY,1.55 ± 0.2
8,ERVNKFLWGGFSERLRLMSQ,0.51 ± 0.65
9,HFYHLDTSHSGWDLKSSY,4.68 ± 0.075
10,VWAHL,-0.191 ± 0.35
11,GKMPIRNNKVLLKRSATNLC,5.63 ± 0.067
12,YVLFFHGIMSCTPMQYQYMG,inactive
13,SRNRFHSYLMSRCNMWQLHY,0.287 ± 0.33
14,QYVPVLGPACMQLMRYNCAD,-0.177 ± 0.4
15,VYFSQDQFSYYFTRVESVEV,-0.191 ± 0.45
16,KQLRSSVSSSYYHGNTVCAE,0.794 ± 0.39
17,WQKLLIDYSSSTYDEALGT,0.833 ± 0.8
18,VCNSLCDSYF,-1.28 ± 0.56
19,IDCFIVISSMMSRVLYCGER,0.21 ± 0.25
20,CLHCSRFSKTLYRKFRNREN,-0.33 ± 0.76
